Measurements: publication PMC2840706

Assays:
[1] = molecular target: HIV-1 CA A14C/E45C/W184A/M185A (HIV-1 (NL4-3)); assay: SEC
[2] = molecular target: HIV-1 CA A14C/E45C/W184A/M185A (HIV-1 (NL4-3)); assay: cross-linking

“HIV-1 CA A14C/E45C/W184A/M185A (natural protein)” gave a stoichiometry N [1] of 6 and a stoichiometry N [2] of 6.
